The text below walks through data of publication PMC4940744, “Iron(II) supramolecular helicates interfere with the HIV-1 Tat–TAR RNA interaction critical for viral replication”.

In the series the target is T1, ADP-1 polypeptide (Tat RNA-binding region) (HIV-1, UniProt P04608 37-72).
T1 chain: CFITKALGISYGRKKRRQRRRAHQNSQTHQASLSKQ
Nature of the series: EMSA; no helicate; EMSA: 50 mM Tris-HCl pH 8.0, 50 mM KCl, 100 mM DTT, 0.05% Triton X-100, 10 min on ice; 15% PAA gel, 0.5x TB, 5 C. The note with it: label: 5'-32P; hairpin with 3-nt UCU bulge. Background: In EMSA bound probe runs differently from free probe, usually more slowly.

B1: TAR RNA (structured_RNA)
RNA: GGCCAGAUCUGAGCCUGGGAGCUCUCUGGCC
With B1, the binding result is reported as “binds”.
